± gives the uncertainty stated by the source.
assay: amyloid nucleation score (Sup35N fusion, yeast selection) (log enrichment); library NNK3; higher = more nucleation; inactive = no reads after selection
Method in brief: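 Nucleation score: DiMSum log enrichment of output over input reads, centred on the mode score of non-aggregating sequences. Only sequences with at least 100 input reads were kept. Reads came from Illumina sequencing of plasmid inserts before and after 7 days of growth at 30°C without adenine and uracil, in psi-negative yeast expressing Sup35N fused to peptides of 20 random codons after 24 hours of induction with 100 μM copper sulfate.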

| Substance | amyloid nucleation score |
| --- | --- |
| HPIANVV | inactive |
| HQSISGWLVRGLTAGSGAVC | -0.496 ± 0.96 |
| HQTLKSQD | inactive |
| HQVGYGLHGPG | -0.539 ± 0.96 |
| HQYWEGCSMLYL | inactive |
| HRAPMSHPVCLMIKWLLWVL | inactive |
| HRFSVWSEYCILIFRLQHRP | inactive |
| HRLVRLSVRMSRRTYS | inactive |
| HRYYYFF | 1.83 ± 0.093 |
| HSFIDERWSLYYERVLVYTG | inactive |
| HSRMWVTGLVSCVSGYMQVV | inactive |
| HSTTSLWSVVSVQSKTFMLK | inactive |
| HSVIIAAMLSEISVSGLISG | inactive |
| HTGHHWNRLHETQNSRL | inactive |
| HTRWLGYNSHRGYLFLMSKF | 0.104 ± 0.9 |
| HTVLILVCAFKNAG | inactive |
| HTYLFRSMS | inactive |
| HVAKVGTFNWTHNGYDNCFV | inactive |
| HVCHKTYLSLKLHKLDFFYS | 0.391 ± 0.17 |
| HVFYIVYSFISLRNHVAYLS | inactive |
| HVLNEWKSNTGLVVSSAWFC | 1.43 ± 0.087 |
| HVLSVQTLYLFCKGLKESGT | 0.809 ± 0.16 |
| HVNLIDTKNSLMQMLN | inactive |
| HVNMSNIVLVLFSNSFNMHE | 1.75 ± 0.082 |

| Substance | amyloid nucleation score |
| --- | --- |
| HVVGQDIRV | inactive |
| HVVIARTNRGDYNCFSSDGG | inactive |
| HVVKSRSGLIMVWRPLL | -0.65 ± 1.1 |
| HWMVSCYFSVRLRARLSRRG | inactive |
| HWTLKMTVQHVFMLGASCRY | inactive |
| HYLQS | inactive |
| HYNSSSFRVGPCVSLGNHTQ | inactive |
| HYRFNNACLDRGHSEGYWRI | inactive |
| HYVIV | inactive |
| HYYVTVTHGS | inactive |
| IAALNFSCRTLSL | inactive |
| IADFNSL | inactive |
| IAFEVY | inactive |
| IAGFRNGSPANNAVGKPG | inactive |
| IAHWAWGMELIIYQIPNHFR | 0.407 ± 0.25 |
| IAIKNSSRRYMNYERLFTKL | inactive |
| IAMSRSACRYVFECYIYFFF | inactive |
| IARSREI | inactive |
| IATTDIYAAYFYSLMQAIYR | inactive |
| IAYNMCEIYVRVCYYFPIIC | inactive |
| ICAVFWDCMISRSCDTALYS | inactive |
| ICCTSS | inactive |
| ICLCLHCIYSRSITSAVLSA | inactive |
| ICNIYCCCQG | 2.6 ± 0.069 |

| Substance | amyloid nucleation score |
| --- | --- |
| ICRRPYFSHLRSHRGFQNTD | inactive |
| ICSGTSH | -0.268 ± 0.6 |
| ICSII | inactive |
| ICSLCEHSFVRVNGMYWHRE | 2.02 ± 0.092 |
| ICTDGVHGCMVGS | inactive |
| ICVCEQSTVVYTKELSTFGA | 0.012 ± 0.27 |
| ICWMRDTTVVGFRWV | -0.07 ± 0.96 |
| IDLRC | inactive |
| IDRSLLSGFSNLHICSICCT | 1.2 ± 0.12 |
| IDVRGSMYGVMMYHSTRDVT | inactive |
| IEAEHYCLLLVFLQVGLSSA | inactive |
| IEGEYLVASAWRFLQSKHAH | inactive |
| IEKASACNG | inactive |
| IEQGGI | inactive |
| IERGSDFLLHAMAYSFIGCL | -0.416 ± 1.1 |
| IETAGSTHSSTWGDYSNRLC | inactive |
| IEVVYNLFWSRTFGAFVTKV | inactive |
| IFCAPRAEVSGSYYRGNVSV | inactive |
| IFFVRSDAFKFSILSVNASL | -0.37 ± 0.56 |
| IFGFDYIAPFFCVTFGIRRV | inactive |
| IFLVVPGHDLWNCRRS | inactive |
| IFNLMFYFVVRNE | 3.01 ± 0.071 |
| IFSFTLSLSFGVFLNMFSVD | inactive |
| IFSLLPVDILVTLY | inactive |

| Substance | amyloid nucleation score |
| --- | --- |
| IFTLCITGGV | inactive |
| IFVLVYNISSNTGNYSIGFV | 0.934 ± 0.15 |
| IFVNWMVISVGLARFDVINA | -0.579 ± 0.69 |
| IFVWYMNVSCGMVDRYGLPM | inactive |
| IFWICWLGFVNCVYTAEIPT | inactive |
| IGFFEFIKELITWKILS | inactive |
| IGFGSWFSKVSPNVEFVGAL | inactive |
| IGRAIVHWYWFSSL | inactive |
| IGVKSYWLRRSYLLFKYWMV | inactive |
| IHCGACYSACWVRLGAWMTC | inactive |
| IHFNWLIYITNTYVRRIFRC | inactive |
| IHLSCMIIKRHLSRYCDQSR | inactive |
| IHLTCLWVYQDLLV | inactive |
| IHRNEYMMRKKDRILQNLAV | inactive |
| IHVMSWKQSYSI | 0.949 ± 0.15 |
| IHYPKCVAGLCSRSLCTAVV | inactive |
| IIEPYTFCFRICVWGGEWIV | inactive |
| IIFWNICPAYCYL | 2.29 ± 0.059 |
| IIGWASWCVGKGHLTFCQLV | inactive |
| IIIFWLFLSGEIDECNNCAV | inactive |
| IIKWSCYNLSLYHTKCKDAE | inactive |
| IIMLTFQVNVTFASVWRTRS | inactive |
| IIRAFDTYVCCKFGNCSVHM | 2.59 ± 0.052 |
| IISCYTNKMIVVTWCYPLRR | 0.116 ± 0.19 |

| Substance | amyloid nucleation score |
| --- | --- |
| IIYMMLYVKEGMSWTSLPDQ | inactive |
| IIYPLMKAWISDMLMVISIS | inactive |
| IKAGTEVVFRTSDLFMTMLQ | inactive |
| IKFHW | inactive |
| IKIMFLTAVYVMVGLQIIAT | inactive |
| IKLVDLPCSLVNTGSTVNRE | inactive |
| IKSGFW | inactive |
| IKTGYSTHDPNHVDNTIRSR | inactive |
| ILARYLDIYMSSVPVEWVTK | inactive |
| ILCFGLLN | inactive |
| ILFTYCSYINREVLRWMQDS | inactive |
| ILGRSSISFDLM | inactive |
| ILIWRSGCYWTSPTEGVFRF | 0.572 ± 0.2 |
| ILNMAVGALWGLMIWSVMLF | inactive |
| ILNTVIGSQLDELPVAAFSS | inactive |
| ILQKQVTTRLSINSENLHL | 0.256 ± 0.21 |
| ILRHKCDEQPVRVSGHCFA | inactive |
| ILRNRNDIQNAYCRNKY | inactive |
| ILRYLSIVPRNFYRCYGHFG | inactive |
| ILSKVNSKSDKRSF | inactive |
| ILSLSQMNT | inactive |
| ILSRRLRLQLLFDFYNCLCG | inactive |

Reference: the supplement of paper PMC12042874
